Data taken from paper doi:10.1101/2025.03.13.643145 (bioRxiv, 2025).
Positions of bridges follow the written chain, without caps; N, C: chain ends. No end group written: not given here.

How the values were obtained:
Experiment in all cases: ELISA
[1] = target: T1, CD81 EC2 domain (extracellular-2 domain of tetraspanin CD81, residues 113-201) (UniProt P60033 113-201)
T1 sequence: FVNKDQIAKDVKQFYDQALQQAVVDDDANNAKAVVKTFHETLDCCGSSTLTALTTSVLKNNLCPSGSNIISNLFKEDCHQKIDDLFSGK

[2] = target: T2, CD9 EC2 domain (extracellular-2 domain of tetraspanin CD9, residues 113-192) (UniProt P21926 113-192)
T2 sequence: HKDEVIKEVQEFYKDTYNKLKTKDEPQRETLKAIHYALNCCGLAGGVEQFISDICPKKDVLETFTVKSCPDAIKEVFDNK

[3] = target: T3, CD151 EC2 domain (extracellular-2 domain of tetraspanin CD151, residues 113-221) (UniProt P48509 113-221)
T3 sequence: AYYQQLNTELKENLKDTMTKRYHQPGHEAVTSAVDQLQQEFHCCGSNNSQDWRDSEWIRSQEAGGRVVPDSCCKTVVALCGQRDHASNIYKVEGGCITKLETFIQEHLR

Measured: binding result

B1: disulfide-linked cyclic site 2 peptide of integrin β3 (GST fusion protein) (peptide)
peptide: CRLAGIVQPNDGQSHVGSDNHYSASTTMC
modifications: disulfide 1-29; also: GST fusion protein
binds: all assays above
